A word on the stoichiometry N: it is a count of units in the complex or per binding partner. By Kd is commonly meant the constant that tells how readily two partners part at equilibrium.

Consider two substances from article PMC8649778.

Test [1] has as its target APRc_(110–231)(D140N)His, active site mutant of the soluble domain of APRc (UniProt Q92FY8). Description: shift of migration in nonreducing SDS-PAGE with Western blot. In general terms: A western blot detects proteins with antibodies after separation by electrophoresis.
In test [2] the target is human IgG (human). The experiment in a line: BLI. On the technique in general: Biolayer interferometry detects binding as a change in optical thickness at a sensor tip.

As to “APRc_(110–231)(D140N)His, active site mutant of the soluble domain of APRc (from UniProt Q92FY8 110-231) (domain or fragment)”, in test [1], the stoichiometry N was determined as 2. In test [2], “APRc_(110–231)His, soluble domain of APRc fused to a C-terminal His tag (from UniProt Q92FY8 110-231) (domain or fragment)” registered a Kd of 12.6 µM.
